Measured values from article PMC3561948.
Values joined by “and” are separate entries in the source; they are usually repeats but may differ in a detail not shown here. Equal entries are not always repeated.

Key:
[1] = target: Mos1 transposase (containing the solubilizing mutation T216A), hydrogenated (Drosophila mauritiana); experiment: SAXS + SANS
[2] = target: Mos1 transposase (containing the solubilizing mutation T216A), hydrogenated (Drosophila mauritiana); experiment: […], room temperature, 20 mM Tris pH 7.5, 0.3 M KCl, 1 mM DTT
[3] = target: Mos1 transposase (containing the solubilizing mutation T216A), hydrogenated (Drosophila mauritiana); experiment: SEC-MALS
[4] = target: Mos1 transposase (containing the solubilizing mutation T216A), hydrogenated (Drosophila mauritiana); experiment: SAXS + SANS; remark: listed apart in the source
[5] = target: N130 Mos1 (the N-terminal 130 amino acids of Mos1 transposase, DNA-binding domain) (Drosophila mauritiana); experiment: SEC-MALS
[6] = target: T1, H-Mos1 transposase (UniProt Q7JQ07 1-345, T216A)
T1 sequence: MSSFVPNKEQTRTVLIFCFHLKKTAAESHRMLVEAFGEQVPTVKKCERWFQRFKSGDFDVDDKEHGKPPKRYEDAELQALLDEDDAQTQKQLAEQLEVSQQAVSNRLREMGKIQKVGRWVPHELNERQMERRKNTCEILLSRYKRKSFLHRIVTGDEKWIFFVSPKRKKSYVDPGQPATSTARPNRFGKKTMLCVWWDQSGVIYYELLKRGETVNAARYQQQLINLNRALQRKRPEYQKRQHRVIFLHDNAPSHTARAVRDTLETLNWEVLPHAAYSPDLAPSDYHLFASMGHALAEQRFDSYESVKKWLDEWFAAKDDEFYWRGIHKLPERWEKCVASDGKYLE

[7] = target: T2, D-Mos1 transposase (UniProt Q7JQ07 1-345, T216A); experiment: SANS contrast variation
T2 sequence: T1 sequence

“Mos1 transposase (containing the solubilizing mutation T216A), hydrogenated (enzyme)” gave a stoichiometry N [1] of 2, a stoichiometry N [2] of 2 and a stoichiometry N [3] of 2. It also gave a stoichiometry N [4] of 2.

“N130 Mos1 (the N-terminal 130 amino acids of Mos1 transposase, DNA-binding domain) (domain or fragment)” was tested, and the stoichiometry N [5] was 2 and 4.

B1: 50-mer IR DNA (SEC2 duplex) (dsDNA)
DNA 1: TTTAAAAAAAACGACATTTCATACTTGTACACCTGATAGTTTCTATATTC
DNA 2: GAATATAGAAACTATCAGGTGTACAAGTATGAAATGTCGTTTTTTTTAAA
B1: binds [6]; binds [7].
